Data published in publication PMC6152455.

How the values were obtained:
[1] = target: Human CD16a/FcγRIIIa 158F (human) (UniProt P08637); assay: SPR
[2] = target: Human CD16a/FcγRIIIa 158V (human); assay: SPR
Human CD16a/FcγRIIIa 158V (human), sequence (P08637 17-208): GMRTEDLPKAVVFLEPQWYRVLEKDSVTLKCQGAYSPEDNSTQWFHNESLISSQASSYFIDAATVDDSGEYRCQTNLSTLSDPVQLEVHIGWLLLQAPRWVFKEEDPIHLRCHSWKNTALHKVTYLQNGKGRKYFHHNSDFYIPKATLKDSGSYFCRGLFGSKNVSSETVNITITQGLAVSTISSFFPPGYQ

Row | Substance | Kd [1] [nM] | Kd [2] [nM]
1 | P-mab (in-house made pertuzumab biosimilar) (antibody) | 2710 | 818
2 | T-mab (in-house made trastuzumab biosimilar) (antibody) | 1630 | 311
